Data from patent US20100280227A1 (Genentech, published 2010).
Like-named read-outs stand apart in the source and are kept apart here.

B3: mouse BR3 extracellular domain (receptor)
chain: MGARRLRVRSQRSRDSSVPTQCNQTECFDPLVRNCVSCELFHTPDTGHTSSLEPGTALQPQEGS
notes: also called mBR3-ECD; mBR-ECD

Columns and labels:
[1] = biological target: T1, human BR3 expressed on cells (human, UniProt Q96RJ3 1-184); assay: BJAB cells, direct binding
T1 construct: whole, on cells; also called BR3 on BJAB cells; cell surface BR3

[2] = biological target: T1, human BR3 expressed on cells; assay: BJAB cells, direct binding; remark: listed apart in the source
[3] = biological target: T2, human BR3 extracellular domain (human, UniProt Q96RJ3 1-61); assay: SPR, IgG on chip, BR3 ECD in solution
T2 construct: biotinylated where used as tracer; also called hBR3-ECD; BR3-ECD

[4] = biological target: B3; assay: SPR, IgG on chip, BR3 ECD in solution
[5] = biological target: T1, human BR3 expressed on cells; assay: BJAB cells, competition with biotin-BAFF
[6] = biological target: T1, human BR3 expressed on cells; assay: BJAB cells, competition with biotin-BAFF; remark: listed apart in the source
[7] = biological target: T3, human BR3 displayed on phage, T17 alanine-scan mutant (human, UniProt Q96RJ3 1-61, limits assumed); assay: shotgun alanine scan of phage-displayed BR3; F against wild type;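 further: Phage-displayed BR3 shotgun alanine libraries, two selection rounds for anti-BR3 antibody binding, normalized to a display selection, F above 1 marks a harmful substitution, below 1 a beneficial one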
T3 construct: One position of the shotgun alanine scan of BR3 on phage; the F value gives the effect of this change against wild type; See m1 for the parent

[8] = biological target: T4, human BR3 displayed on phage, L28 alanine-scan mutant (human, UniProt Q96RJ3 1-61, limits assumed); assay: as above
T4 construct: One position of the shotgun alanine scan of BR3 on phage

[9] = biological target: T5, human BR3 displayed on phage, V29 alanine-scan mutant (human, UniProt Q96RJ3 1-61, limits assumed); assay: as above
T5 construct: One position of the shotgun alanine scan of BR3 on phage

[10] = biological target: T6, human BR3 displayed on phage, H31 alanine-scan mutant (human, UniProt Q96RJ3 1-61, limits assumed); assay: as above
T6 construct: One position of the shotgun alanine scan of BR3 on phage

[11] = biological target: T7, human BR3 displayed on phage, V33 alanine-scan mutant (human, UniProt Q96RJ3 1-61, limits assumed); assay: as above
T7 construct: One position of the shotgun alanine scan of BR3 on phage

[12] = biological target: human BR3 displayed on phage, mutated at A34 in the alanine scan (human, UniProt Q96RJ3 1-61, limits assumed); assay: as above
[13] = biological target: T8, human BR3 displayed on phage, G36 alanine-scan mutant (human, UniProt Q96RJ3 1-61, limits assumed); assay: as above
T8 construct: One position of the shotgun alanine scan of BR3 on phage

[14] = biological target: T9, human BR3 displayed on phage, L37 alanine-scan mutant (human, UniProt Q96RJ3 1-61, limits assumed); assay: as above
T9 construct: One position of the shotgun alanine scan of BR3 on phage

[15] = biological target: T10, human BR3 displayed on phage, L38 alanine-scan mutant (human, UniProt Q96RJ3 1-61, limits assumed); assay: as above
T10 construct: One position of the shotgun alanine scan of BR3 on phage

[16] = biological target: T11, human BR3 displayed on phage, R39 alanine-scan mutant (human, UniProt Q96RJ3 1-61, limits assumed); assay: as above
T11 construct: One position of the shotgun alanine scan of BR3 on phage

[17] = biological target: T12, human BR3 displayed on phage, P18 alanine-scan mutant (human, UniProt Q96RJ3 1-61, limits assumed); assay: as above
T12 construct: One position of the shotgun alanine scan of BR3 on phage

[18] = biological target: T13, human BR3 displayed on phage, T40 alanine-scan mutant (human, UniProt Q96RJ3 1-61, limits assumed); assay: as above
T13 construct: One position of the shotgun alanine scan of BR3 on phage

[19] = biological target: T14, human BR3 displayed on phage, P41 alanine-scan mutant (human, UniProt Q96RJ3 1-61, limits assumed); assay: as above
T14 construct: One position of the shotgun alanine scan of BR3 on phage

[20] = biological target: T15, human BR3 displayed on phage, R42 alanine-scan mutant (human, UniProt Q96RJ3 1-61, limits assumed); assay: as above
T15 construct: One position of the shotgun alanine scan of BR3 on phage

[21] = biological target: T16, human BR3 displayed on phage, V20 alanine-scan mutant (human, UniProt Q96RJ3 1-61, limits assumed); assay: as above
T16 construct: One position of the shotgun alanine scan of BR3 on phage

[22] = biological target: T17, human BR3 displayed on phage, P21 alanine-scan mutant (human, UniProt Q96RJ3 1-61, limits assumed); assay: as above
T17 construct: One position of the shotgun alanine scan of BR3 on phage

[23] = biological target: human BR3 displayed on phage, mutated at A22 in the alanine scan (human, UniProt Q96RJ3 1-61, limits assumed); assay: as above
[24] = biological target: T18, human BR3 displayed on phage, E23 alanine-scan mutant (human, UniProt Q96RJ3 1-61, limits assumed); assay: as above
T18 construct: One position of the shotgun alanine scan of BR3 on phage

[25] = biological target: T19, human BR3 displayed on phage, F25 alanine-scan mutant (human, UniProt Q96RJ3 1-61, limits assumed); assay: as above
T19 construct: One position of the shotgun alanine scan of BR3 on phage

[26] = biological target: T20, human BR3 displayed on phage, D26 alanine-scan mutant (human, UniProt Q96RJ3 1-61, limits assumed); assay: as above
T20 construct: One position of the shotgun alanine scan of BR3 on phage

[27] = biological target: T21, human BR3 displayed on phage, L27 alanine-scan mutant (human, UniProt Q96RJ3 1-61, limits assumed); assay: as above
T21 construct: One position of the shotgun alanine scan of BR3 on phage

[28] = biological target: T22, mouse BR3 (form in the mapping assay not stated) (mouse, UniProt Q9D8D0 1-71, limits assumed); assay: competition ELISA on murine BR3 against biotinylated V3-1m
T22 construct: May be the same as m2, m6 or m10
T22 sequence (looked up): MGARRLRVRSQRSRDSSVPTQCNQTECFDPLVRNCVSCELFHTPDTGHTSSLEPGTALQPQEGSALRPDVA

[29] = biological target: T22, mouse BR3 (form in the mapping assay …); assay: competition ELISA on murine BR3 against biotinylated B9C11
[30] = biological target: T23, murine BR3 expressed on cells (mouse, UniProt Q9D8D0 1-175); assay: BHK cells expressing murine BR3, competitive binding assay against BAFF
T23 construct: whole, on cells; also called murine BR3 on BHK cells; mouse BR3
T23 sequence (looked up): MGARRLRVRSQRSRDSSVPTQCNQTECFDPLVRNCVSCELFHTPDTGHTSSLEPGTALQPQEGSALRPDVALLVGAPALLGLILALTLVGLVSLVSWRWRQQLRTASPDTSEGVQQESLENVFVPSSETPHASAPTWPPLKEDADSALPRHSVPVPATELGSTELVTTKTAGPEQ

mouse BR3-Fc = biological target: T24, mouse BR3-Fc (mouse); assay: ELISA: mBAFF-Flag titrated on coated mBR3-Fc, then F(ab)'2 phage #3 (V3) added and detected
T24 construct: (BR3 ECD fused to a murine Fc); also called mBR3-Fc; murine BR3-Fc
T24 chain: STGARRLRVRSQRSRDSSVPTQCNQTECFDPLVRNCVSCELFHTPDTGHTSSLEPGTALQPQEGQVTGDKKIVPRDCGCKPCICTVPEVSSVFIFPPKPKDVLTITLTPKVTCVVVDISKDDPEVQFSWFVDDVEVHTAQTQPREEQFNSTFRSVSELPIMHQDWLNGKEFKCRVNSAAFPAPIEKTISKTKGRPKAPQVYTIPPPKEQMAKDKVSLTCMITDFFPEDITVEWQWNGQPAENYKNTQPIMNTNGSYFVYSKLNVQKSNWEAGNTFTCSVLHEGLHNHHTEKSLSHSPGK

V3-1 Fab [31] = biological target: T25, V3-1 Fab; assay: phage competition ELISA, ECD in solution
T25 construct: soluble Fab in SPR

V3-11 Fab = biological target: T26, V3-11 Fab; assay: phage competition ELISA, ECD in solution
T26 construct: soluble Fab in SPR
T26 sequence (VH, as listed by the source, chain 1 of 2): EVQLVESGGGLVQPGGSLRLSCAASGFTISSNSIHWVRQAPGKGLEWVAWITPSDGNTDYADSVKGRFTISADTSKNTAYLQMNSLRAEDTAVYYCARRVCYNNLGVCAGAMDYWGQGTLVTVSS
T26 sequence (VL, as listed by the source, chain 2 of 2): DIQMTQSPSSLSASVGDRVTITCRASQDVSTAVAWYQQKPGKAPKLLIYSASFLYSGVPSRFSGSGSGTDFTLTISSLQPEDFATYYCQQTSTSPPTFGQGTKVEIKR

V3-12 Fab = biological target: T27, V3-12 Fab; assay: phage competition ELISA, ECD in solution
T27 construct: soluble Fab in SPR
T27 sequence (VH, as listed by the source, chain 1 of 2): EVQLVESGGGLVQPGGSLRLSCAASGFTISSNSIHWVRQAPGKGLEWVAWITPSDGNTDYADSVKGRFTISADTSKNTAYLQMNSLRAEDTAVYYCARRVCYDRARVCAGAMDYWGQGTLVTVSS
T27 sequence (VL, as listed by the source, chain 2 of 2): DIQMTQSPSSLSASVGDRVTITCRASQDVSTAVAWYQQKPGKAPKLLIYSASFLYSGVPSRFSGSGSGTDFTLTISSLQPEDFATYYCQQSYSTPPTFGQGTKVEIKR

V3-13 Fab = biological target: T28, V3-13 Fab; assay: phage competition ELISA, ECD in solution
T28 construct: soluble Fab in SPR

V3-1 Fab [32] = biological target: T25, V3-1 Fab; assay: phage competition ELISA, ECD in solution; remark: listed apart in the source
V3-46s Fab [33] = biological target: T29, V3-46s Fab; assay: phage competition ELISA, ECD in solution
T29 construct: N31S mutant of V3-46; also called V46s; N31S

V3-46s Fab [34] = biological target: T29, V3-46s Fab; assay: phage competition ELISA, ECD in solution (printed Phage50)
V3-46s-9 Fab = biological target: T30, V3-46s-9 Fab; assay: as above
T30 construct: soluble Fab in SPR; also called V46s-9
T30 sequence (VH, as listed by the source, chain 1 of 2): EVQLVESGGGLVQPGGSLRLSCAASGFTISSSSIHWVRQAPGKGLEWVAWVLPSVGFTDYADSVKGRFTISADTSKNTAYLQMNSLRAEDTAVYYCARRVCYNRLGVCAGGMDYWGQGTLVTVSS
T30 sequence (VL, as listed by the source, chain 2 of 2): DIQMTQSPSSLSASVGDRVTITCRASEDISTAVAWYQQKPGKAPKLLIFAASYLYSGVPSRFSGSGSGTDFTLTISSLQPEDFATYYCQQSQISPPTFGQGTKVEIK

V3-46s-42 Fab = biological target: T31, V3-46s-42 Fab; assay: as above
T31 construct: soluble Fab in SPR; also called V46s-42
T31 sequence (VL, as listed by the source, chain 2 of 2): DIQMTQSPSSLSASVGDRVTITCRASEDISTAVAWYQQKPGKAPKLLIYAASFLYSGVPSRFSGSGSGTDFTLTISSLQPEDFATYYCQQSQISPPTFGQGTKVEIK

V3-46 phage clone = biological target: T32, V3-46 phage clone; assay: phage competition ELISA, ECD in solution (printed Phage ID50)
T32 construct: also called V3-46 WT; clone 46

V3-46 N31A phage clone = biological target: T33, V3-46 N31A phage clone; assay: as above
T33 construct: also called V3-46a

V3-46 N31Q phage clone = biological target: T34, V3-46 N31Q phage clone; assay: as above
T34 construct: also called V3-46q
T34 sequence (VH, as listed by the source, chain 1 of 2): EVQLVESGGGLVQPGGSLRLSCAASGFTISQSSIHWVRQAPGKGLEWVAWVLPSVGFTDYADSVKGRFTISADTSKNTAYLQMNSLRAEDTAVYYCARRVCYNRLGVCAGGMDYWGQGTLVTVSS
T34 sequence (VL, as listed by the source, chain 2 of 2): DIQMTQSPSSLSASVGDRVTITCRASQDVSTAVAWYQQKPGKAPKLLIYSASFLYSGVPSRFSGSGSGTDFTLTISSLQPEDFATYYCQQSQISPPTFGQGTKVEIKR

V3-46s Fab [35] = biological target: T29, V3-46s Fab; assay: as above

B1: V3-1m (antibody, mouse IgG2a, V domains shown)
VH: EVQLVESGGGLVQPGGSLRLSCAASGFTISSNSIHWVRQAPGKGLEWVAWITPSDGNTDYADSVKGRFTISADTSKNTAYLQMNSLRAEDTAVYYCARRVCYNRLGVCAGGMDYWGQGTLVTVSS
VL: DIQMTQSPSSLSASVGDRVTITCRASQDVSTAVAWYQQKPGKAPKLLIYSASFLYSGVPSRFSGSGSGTDFTLTISSLQPEDFATYYCQQSRITPPTFGQGTKVEIKR
notes: also called mV3-1; V3-1 (IgG)
- EC50 [1]: 3.37 nM
- EC50 [2]: 4.3 nM
- Kd [3]: 0.64 nM
- koff [3]: 0.000171 s⁻¹
- kon [3]: 267000 M⁻¹ s⁻¹
- Kd [4]: 1.56 nM
- koff [4]: 0.000131 s⁻¹
- kon [4]: 84000 M⁻¹ s⁻¹
- IC50 [5]: 2.47 nM
- IC50 [6]: 8.9 nM
- F value [7]: 0.5
- F value [8]: 98
- F value [9]: 92
- F value [10]: 0.1
- F value [11]: 14
- F value [12]: 13
- F value [13]: 0.7
- F value [14]: 0.7
- F value [15]: 1.4
- F value [16]: 0.4
- F value [17]: 0.8
- F value [18]: 0.6
- F value [19]: 1.6
- F value [20]: 0.9
- F value [21]: 0.9
- F value [22]: 0.6
- F value [23]: 0.7
- F value [24]: 2.4
- F value [25]: 21
- F value [26]: 8.7
- F value [27]: 1.4
- IC50 (read off the curve) [28]: ~0.6 µg/mL
- IC50 (read off the curve) [29]: ~0.8 µg/mL
- IC50 [30]: 36.2 nM

B2: mBAFF-Flag protein (ligand, mouse, UniProt Q9WU72 127-309, looked up, not shown: small tags and cut ends)
chain: AFQGPEETEQDVDLSAPPAPCLPGCRHSQHDDNGMNLRNIIQDCLQLIADSDTPTIRKGTYTFVPWLLSFKRGNALEEKENKIVVRQTGYFFIYSQVLYTDPIFAMGHVIQRKKVHVFGDELSLVTLFRCIQNMPKTLPNNSCYSAGIARLEEGDEIQLAIPRENAQISRNGDDTFFGALKLL
- IC50 (read off the curve) (mouse BR3-Fc): ~2 nM

Binder: B3
- IC50 (V3-1 Fab [31]): 5.4 nM
- IC50 (V3-11 Fab): 8.4 nM
- IC50 (V3-12 Fab): 57 nM
- IC50 (V3-13 Fab): 33 nM
- IC50 (V3-1 Fab [32]): 5.4 nM
- IC50 (V3-46s Fab [33]): 1.53 nM
- IC50 (V3-46s Fab [34]): 1.7 nM
- IC50 (V3-46s-9 Fab): 0.18 nM
- IC50 (V3-46s-42 Fab): 0.23 nM
- IC50 (V3-46 phage clone): 1.42 nM
- IC50 (V3-46 N31A phage clone): 2.89 nM
- IC50 (V3-46 N31Q phage clone): 2.44 nM
- IC50 (V3-46s Fab [35]): 1.53 nM
